Results published in article PMC5494299.

Biological target: CagV (Helicobacter pylori (endogenous in strain 26695))
Test: cross-linking; 5 mM DSP added to wild‐type H. pylori extract (0.1% DDM, 0.2% sarcosine) on ice for 25 min; SDS/PAGE and western blot with anti‐CagV antibody (mice); ΔcagV extract as control

## CagV (natural protein)
  stoichiometry N: 2
